Results on 4 molecules are retold here after publication PMC6114900, “Molecular basis for CesT recognition of type III secretion effectors in enteropathogenic Escherichia coli” (PLoS Pathogens, 2018).

The target of assay [1] is T1, CesT (no tag, co-expressed and co-purified with His6-Tir constructs) (enteropathogenic Escherichia coli (EPEC), UniProt P21244 1-156).
T1 construct: also called full-length CesT
Put plainly: SEC. To be noted: both partners purified.

The target in assay [2] is T2, CesT^138 (no tag, co-expressed and co-purified with His6-Tir peptides) (enteropathogenic Escherichia coli (EPEC), UniProt P21244 2-138).
T2 construct: also called CesT^2-138
T2 sequence (P21244 2-138): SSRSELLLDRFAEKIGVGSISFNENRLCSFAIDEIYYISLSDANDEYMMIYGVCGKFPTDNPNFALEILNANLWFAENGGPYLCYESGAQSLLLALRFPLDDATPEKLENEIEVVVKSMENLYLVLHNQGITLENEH
Put plainly: pull-down. To be noted: partners not purified.

T1 sequence (P21244 whole entry): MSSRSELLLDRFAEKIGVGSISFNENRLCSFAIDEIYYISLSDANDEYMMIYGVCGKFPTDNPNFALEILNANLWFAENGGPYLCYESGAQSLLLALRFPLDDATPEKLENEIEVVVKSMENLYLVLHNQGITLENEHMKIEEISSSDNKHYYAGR

B1: His6-Tir^23-80 (domain or fragment)
chain: PSQTDGAARGGTGHLISSTGALGSRSLFSPLRNSMADSVDSRDIPGLPTNPSRLAAAT
notes: not shown: His6, N-terminal, kept
As for B1, the binding result in assay [1] is given as “binds”.

B2: His6-Tir^490-550 (domain or fragment)
chain: SGSGPVTGRLIGTPGQGIQSTYALLANSGGLRLGMGGLTSGGESAVSSVNAAPTPGPVRFV
notes: also called C-terminal Tir peptide; not shown: His6, N-terminal, kept
With B2, in assay [1], the binding result was “binds”.
Take GGTGHLISSTGALGSRSLFSPLRNSMADSVDSRDIPGLPTNPSRLAAAT (domain or fragment, not shown: His6, N-terminal, kept) [His6-Tir^32-80]: the binding result in assay [2] and in assay [1] was “binds” in each case.
For the molecule GHLISSTGALGSRSLFSPLRNSMADSVDSRDIPGLPTNPSRLA (domain or fragment, not shown: His6, N-terminal, kept) [His6-Tir^35-77], the binding result in assay [1] was “binds”.
